Patent publication US20040086495

Target: T1, phospho-BAD (recombinant BAD as GST-fusion protein, phosphorylated in vitro with PKA and [gamma-32P]ATP), Q61337
T1 chain: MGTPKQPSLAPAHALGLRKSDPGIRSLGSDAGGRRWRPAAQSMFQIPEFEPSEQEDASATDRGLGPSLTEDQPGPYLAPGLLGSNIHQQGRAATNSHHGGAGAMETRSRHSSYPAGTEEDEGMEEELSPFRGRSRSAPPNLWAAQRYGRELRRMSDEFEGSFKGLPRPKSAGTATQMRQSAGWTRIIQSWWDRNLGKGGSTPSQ

B1: PP2Cβ from bovine brain (protein phosphatase type 2C beta), recombinant, expressed in E. coli (protein)
chain: MGAFLDKPKTEKHNAHGAGNGLRYGLSSMQGWRVEMEDAHTAVVGIPHGLEDWSFFAVYDGHAGSRVANYCSTHLLEHITNNEDFRAAGKSGSALEPSVENVKNGIRTGFLKIDEYMRNFSDLRNGMDRSGSTAVGVMISPKHIYFINCGDSRAVLYRSGQVCFSTQDHKPCNPREKERIQNAGGSVMIQRVNGSLAVSRALGDYDYKCVDGKGPTEQLVSPEPEVYEILRAEEDEFIILACDGIWDVMSNEELCEFVKSRLEVSDDLENVCNWVVDTCLHKGSRDNMSIVLVCFSNAPKVSDEAMRKDSELDKYLESRVEEIMEKSGEEGMPDLAHVMRILSAENIPNLPPGGGLAGKRHVIEAVYSRLNPHRESDGGAGDLEDPW
With B1 the “dephosphorylation of [32P]BAD by PP2C in vitro (SDS-PAGE, autoradiography)” value was “The dephosphorylation of phospho-BAD by PP2C is dependent as well on time and concentration” and the “dephosphorylation of phospho-BAD sites by PP2C” value was “Here it could be shown, that PP2C preferably dephosphorylates P-ser^155 compared to P-ser^112 and P-ser^136”.
